Measured values: paper PMC4951694

What was measured:
Assay in all cases: ITC; 10 μM β3 peptide in the sample cell titrated with αIIb peptide; bicelles of 43 mM DHPC, 17 mM POPC, 25 mM NaH2PO4/Na2HPO4 pH 7.4, 28 °C; stoichiometry fixed at 1:1
[1] = target: integrin β3(W715Y) TM peptide (human) (UniProt P05106)
[2] = target: integrin β3(A711P/L712A) TM peptide (human) (UniProt P05106)
[3] = target: integrin β3(A711P) TM peptide (human) (UniProt P05106)
[4] = target: integrin β3(L712A) TM peptide (human) (UniProt P05106)
[5] = target: integrin β3(A711P/W715Y) TM peptide (human) (UniProt P05106)
[6] = target: integrin β3 TM peptide (human) (UniProt P05106)

KXY [1] | dH [1] [kcal/mol] | KXY [2] | dH [2] [kcal/mol] | KXY [3] | dH [3] [kcal/mol] | KXY [4] | dH [4] [kcal/mol] | KXY [5] | dH [5] [kcal/mol] | KXY [6] | dH [6] [kcal/mol] | Substance
1300 | -14.2 | 4200 | -12.8 | 12700 | -16.9 | 1900 | -12 | 2200 | -14.4 | – | – | integrin αIIb TM peptide (from UniProt P08514 989-1029)
– | – | – | – | 5500 | -16.2 | – | – | – | – | 1080 | -14.2 | integrin αIIb(G972A) TM peptide (from UniProt P08514 989-1029)
– | – | – | – | 4000 | -5.6 | – | – | – | – | – | – | integrin αIIb(R995A) TM peptide (from UniProt P08514 989-1029)
